Patent publication US5756340A, “Insect control with multiple toxins” (The Regents of the University of California, priority 1995, dated 1998)

B1: LqhIV (protein)
peptide: GVRDAYIADDKNCVYTCGANSYCNTECTKNGAESGYCQWFGKYGNACWCIKLPDKVPIRIPGKCR
B2: LqhVI (protein)
chain: GVRDGYIAQPENCVYHCFPGSPGCDTLCKGDGASSGHCGFKEGHGLACWCNDLPDKVGIIVEGEKCH
B3: AaIT: excitatory insect-selective scorpion toxin from Androctonus australis (protein, UniProt P01497 19-88, looked up)
Beta-insect excitatory toxin 1: KKNGYAVDSSGKAPECLLSNYCNNECTKVHYADKGYCCLLSCYCFGLNDDKKVLEISDTRKSYCDTTIIN

Experiments:
Assay type in all cases: in vivo
Swiss Webster mice = experiment: LD50 to mice, subcutaneous injection; conditions: for toxicity towards mice / mammals (in words): Swiss Webster mice; for LD50 to Swiss Webster mice: single toxin, subcutaneous, 24 hours after injection
Method: (§1) The activities of four different insect toxins towards two different insects and towards mice were determined (since one prefers to use insect toxins that have little or no effect on mammals). These were purified by established methods from the respective crude venoms. Their toxicity towards mice and larvae of blow fly and lepidoptera was determined according to the method of Reed and Muench (1938).
The PU50 values of the toxins to blow fly larvae were in accordance with previously published results (Zlotkin et al., Biochim, 53, 1075-1078 (1971); and Eitan et al., Biochem., 29, 5941-5947 (1990)).
(§2) ^c Two replicates of eight mice were injected subcutaneously and the
to mice was determined 24 hours after injection.
as §2
LD50 to mice was determined 24 hours after injection.

[1] = tested on: Sarcophaga falculata larvae; experiment: Paralysis (PU50) of blow fly larvae after toxin injection; conditions: single toxin injected; contraction paralysis immediately, or flaccid/delayed paralysis 5 minutes after injection
Method: as §1
(§3) The PU50 values of the toxins to blow fly larvae were in accordance with previously published results (Zlotkin et al., Biochim, 53, 1075-1078 (1971); and Eitan et al., Biochem., 29, 5941-5947 (1990)). […]
one of the toxins and the PU50 were determined. The PU50 of
excitatory toxins AaIT, LqhVI, and LqhIT3 was determined as a
contraction paralysis immediately after injection. The PU50 of the
depressant toxin LqhIT2 was determined as a flaccid paralysis 5
after injection. The PU50 of the α insect toxins LqhαIT

[2] = tested on: Heliothis virescens larvae; experiment: Paralysis (PU50) of lepidopterous larvae after toxin injection; conditions: single toxin injected; inability to move or turn when inverted, 24 hours after injection
Method: as §1, §3
each one of the toxins and the PU50 was determined as inability to
or turn when inverted on its back 24 hours after injection. […]

Molecule | toxicity towards mice / mammals (in words) (Swiss Webster mice) | LD50 to Swiss Webster mice (Swiss Webster mice) | PU50 to Sarcophaga falculata larvae [1] | PU50 to Heliothis virescens larvae [2]
LqhαIT: α insect toxin from yellow scorpion Leuirus quinquestriatus hebraeus | higher toxicity | 8.0 μg/20 g b.w. | 0.0025 μg/100 mg b.w. | 2.5 μg/100 mg b.w.
B1 | no or weak mammal toxicity | 12 μg/20 g b.w. | 0.1 μg/100 mg b.w. | 0.5 μg/100 mg b.w.
B2 | weak mammal toxicity | > 60 μg/20 g b.w. | 0.006 μg/100 mg b.w. | 3.0 μg/100 mg b.w.
B3 | – | > 60 μg/20 g b.w. | 0.0025 μg/100 mg b.w. | 2.5 μg/100 mg b.w.
